Assay [1] has as its target T1, cyno TfR extracellular domain (analogous construct to human TfR ecd) (cynomolgus monkey, UniProt Q5RDH6 87-760 (Pongo abelii entry)).
T1 construct: also called cynoTfR ecd
T1 chain: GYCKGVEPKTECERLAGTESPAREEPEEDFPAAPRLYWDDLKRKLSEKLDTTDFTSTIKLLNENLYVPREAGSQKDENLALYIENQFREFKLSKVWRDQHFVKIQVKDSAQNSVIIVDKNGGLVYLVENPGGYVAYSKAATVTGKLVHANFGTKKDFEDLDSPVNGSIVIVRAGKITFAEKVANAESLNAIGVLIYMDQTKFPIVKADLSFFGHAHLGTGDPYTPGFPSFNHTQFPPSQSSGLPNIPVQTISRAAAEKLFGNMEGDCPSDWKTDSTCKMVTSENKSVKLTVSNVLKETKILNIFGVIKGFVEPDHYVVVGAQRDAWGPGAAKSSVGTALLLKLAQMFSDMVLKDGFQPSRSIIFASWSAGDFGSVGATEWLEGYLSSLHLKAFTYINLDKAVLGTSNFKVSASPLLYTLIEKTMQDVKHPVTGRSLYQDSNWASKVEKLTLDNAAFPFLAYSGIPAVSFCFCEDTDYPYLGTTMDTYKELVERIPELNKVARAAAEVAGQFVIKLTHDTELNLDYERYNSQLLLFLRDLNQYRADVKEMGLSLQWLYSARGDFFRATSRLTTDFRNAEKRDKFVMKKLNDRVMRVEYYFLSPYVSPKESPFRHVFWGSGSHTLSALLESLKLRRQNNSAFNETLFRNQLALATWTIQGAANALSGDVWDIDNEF
Briefly: ELISA, IgG.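 Further: ELISA of IgG-containing supernatants tested in 1:5 serial dilutions for 1 h, bound antibody read out with HRP anti-kappa antibody and TMB substrate.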
Protocol: (§1) Affinity variants were generated by making individual alanine substitutions in CDR-L3 or CDR-H3 using standard techniques. These variants were screened as IgG by ELISA and SPR to identify positions important for binding to human and cyno TfR; the monovalent affinity of selected variants as Fab was also determined. […] Plates were washed with PBS/0.05% Tween 20 and blocked using Superblock blocking buffer in PBS (Thermo Scientific, Hudson, N.H.). Supernatants containing expressed IgG were diluted serially 1:5 and added to the plate for 1 h. […] Plates were washed with PBS/0.05% Tween 20 and 1:1000 diluted HRP-Goat-anti kappa (Southern Biotech) was added the plate and incubated for 1 h at room temperature. Plates were washed with PBS/0.05% Tween 20 and detected using TMB substrate (BioFX Laboratories, Owings Mills).

Assay [2] addresses T2, human TfR extracellular domain with N-terminal His tag (human, UniProt P02786 89-760).
T2 construct: Biotinylated in some assays; also called huTfR; HuTfR
Briefly: ELISA, IgG.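 Further: ELISA of IgG-containing supernatants tested in 1:5 serial dilutions for 1 h, bound antibody read out with HRP anti-kappa antibody and TMB substrate.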
Protocol: as §1

For the next assay, the target named is T3, murine BACE1 ECD.
T3 construct: analyte of the Octet assay (200 nM) and enzyme of the first short substrate assay
T3 sequence (single chain, as listed by the source limits assumed): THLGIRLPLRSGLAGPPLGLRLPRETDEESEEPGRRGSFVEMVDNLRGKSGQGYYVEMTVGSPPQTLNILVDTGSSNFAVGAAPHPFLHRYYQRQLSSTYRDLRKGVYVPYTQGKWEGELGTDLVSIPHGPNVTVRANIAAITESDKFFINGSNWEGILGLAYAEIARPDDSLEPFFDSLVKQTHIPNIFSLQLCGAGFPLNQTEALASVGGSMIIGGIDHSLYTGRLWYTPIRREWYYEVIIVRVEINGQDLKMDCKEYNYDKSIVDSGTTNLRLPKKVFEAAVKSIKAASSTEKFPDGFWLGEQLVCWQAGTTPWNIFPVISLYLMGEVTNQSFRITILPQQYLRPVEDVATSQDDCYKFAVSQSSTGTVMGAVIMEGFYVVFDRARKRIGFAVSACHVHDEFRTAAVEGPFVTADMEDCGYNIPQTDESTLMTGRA
Put plainly: Octet, pH 7.5.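 Further: antibodies captured on anti-human capture biosensor tips, dissociation followed in PBS with BSA buffer, kinetics fitted with a one-to-one binding model.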 For orientation: BLI is a label-free optical method that tracks binding on a fibre tip over time.

Assay [3] concerns the target T4, human BACE1 ECD.
T4 construct: analyte of the Octet assay (200 nM) and enzyme of the first short substrate assay; also called human BACE1 extracellular domain
Briefly: Octet, pH 7.5.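 Further: antibodies captured on anti-human capture biosensor tips, dissociation followed in PBS with BSA buffer, kinetics fitted with a one-to-one binding model.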
Protocol: (§2) Anti-BACE1 antibodies were loaded onto anti-human capture (AHC) sensors (tips) followed by 60 seconds baseline in assay buffer. […] Tips were transferred to assay buffer for 5 minutes, 30 minutes, or 120 minutes depending on the off-rate, for off-rate measurement. Assay buffer was either PBS+0.1% BSA, pH 7.5; or PBS+0.1% BSA, pH 5.0. Kinetics were analyzed using a 1:1 binding model.

Assay [4] deals with BACE1 in primary mouse cortical neurons (mouse, UniProt P56818 46-501). Put plainly: cell-based or functional assay.
Sequence of BACE1 in primary mouse cortical neurons (P56818 46-501): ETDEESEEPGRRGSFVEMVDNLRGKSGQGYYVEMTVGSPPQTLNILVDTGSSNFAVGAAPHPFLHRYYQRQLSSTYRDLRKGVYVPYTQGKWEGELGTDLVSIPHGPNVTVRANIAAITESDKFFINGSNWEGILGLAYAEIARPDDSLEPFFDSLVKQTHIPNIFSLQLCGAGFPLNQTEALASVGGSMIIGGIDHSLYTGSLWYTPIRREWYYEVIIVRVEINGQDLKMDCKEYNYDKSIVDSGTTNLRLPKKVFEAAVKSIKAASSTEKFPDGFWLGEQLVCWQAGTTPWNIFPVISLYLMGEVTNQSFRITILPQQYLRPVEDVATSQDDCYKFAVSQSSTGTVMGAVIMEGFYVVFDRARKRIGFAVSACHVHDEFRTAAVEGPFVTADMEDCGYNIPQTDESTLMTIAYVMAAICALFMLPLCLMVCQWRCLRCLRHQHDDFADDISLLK
Assay [5] deals with T4, human BACE1 ECD. Briefly: Octet, pH 5.0.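 Further: antibodies captured on anti-human capture sensor tips, dissociation monitored in PBS with BSA buffer, kinetics fitted with a one-to-one binding model.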
T4 sequence (single chain, as listed by the source limits assumed): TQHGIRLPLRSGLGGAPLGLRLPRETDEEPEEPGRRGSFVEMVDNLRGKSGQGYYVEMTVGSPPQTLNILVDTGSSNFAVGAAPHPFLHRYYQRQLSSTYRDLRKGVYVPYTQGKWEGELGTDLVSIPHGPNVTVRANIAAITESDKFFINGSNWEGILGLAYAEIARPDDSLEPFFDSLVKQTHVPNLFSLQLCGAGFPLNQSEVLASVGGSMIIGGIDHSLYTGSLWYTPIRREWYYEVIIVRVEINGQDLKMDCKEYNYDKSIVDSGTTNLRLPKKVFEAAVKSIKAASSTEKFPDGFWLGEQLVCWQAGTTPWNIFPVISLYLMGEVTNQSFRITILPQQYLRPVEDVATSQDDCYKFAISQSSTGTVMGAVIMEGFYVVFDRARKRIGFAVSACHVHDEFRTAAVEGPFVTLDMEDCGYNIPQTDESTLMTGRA
Protocol: as §2

T2 sequence (P02786 89-760 G142S): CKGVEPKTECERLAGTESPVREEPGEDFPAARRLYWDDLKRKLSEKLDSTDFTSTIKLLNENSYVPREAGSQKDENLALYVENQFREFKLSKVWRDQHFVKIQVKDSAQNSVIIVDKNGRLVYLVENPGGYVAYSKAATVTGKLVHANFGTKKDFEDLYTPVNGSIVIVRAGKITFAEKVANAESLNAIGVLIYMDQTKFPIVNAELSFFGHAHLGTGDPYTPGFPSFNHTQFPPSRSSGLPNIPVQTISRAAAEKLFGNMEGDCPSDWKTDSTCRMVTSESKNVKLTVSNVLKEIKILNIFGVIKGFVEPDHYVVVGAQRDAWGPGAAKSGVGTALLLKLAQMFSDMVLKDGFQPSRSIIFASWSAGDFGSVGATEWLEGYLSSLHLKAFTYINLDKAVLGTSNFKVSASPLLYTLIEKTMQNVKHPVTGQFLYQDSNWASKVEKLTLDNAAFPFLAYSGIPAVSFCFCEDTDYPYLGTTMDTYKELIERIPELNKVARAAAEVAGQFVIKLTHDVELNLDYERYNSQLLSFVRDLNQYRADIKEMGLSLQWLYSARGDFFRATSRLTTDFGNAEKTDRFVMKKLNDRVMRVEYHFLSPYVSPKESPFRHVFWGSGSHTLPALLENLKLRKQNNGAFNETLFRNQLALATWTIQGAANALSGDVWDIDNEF
Protocol for murine BACE1 ECD: as §2

B1: D101A (antibody, V domains shown)
VH: EVQLVQSGAEVKKPGASVKVSCKGSGYTFTDYAMHWVRQAPGQGLEWMGGISTYFGRTNYNQKFKGRVTMTVDTSISTAYMELSRLRSDDTAVYYCARGLSGNYVMAYWGQGTTVTVSS
VL: DIVMTQSPDSLAVSLGERATINCRASESVDSYGNSFMHWYQQKPGQPPKLLIYRASNLESGVPDRFSGSGSRTDFTLTISSLQAEDVAVYYCQQSNEAPPTFGQGTKLEIK
notes: also called 7A4.v15 D101A (CDR-H3) IgG; copies: 2 + 2
Turning to B1, the EC50 in assay [1] was 0.0185 µg/mL; in assay [2] it was 0.0173 µg/mL.

B2: L96A (antibody, V domains shown)
VH: EVQLVQSGAEVKKPGASVKVSCKGSGYTFTDYAMHWVRQAPGQGLEWMGGISTYFGRTNYNQKFKGRVTMTVDTSISTAYMELSRLRSDDTAVYYCARGASGNYVMDYWGQGTTVTVSS
VL: DIVMTQSPDSLAVSLGERATINCRASESVDSYGNSFMHWYQQKPGQPPKLLIYRASNLESGVPDRFSGSGSRTDFTLTISSLQAEDVAVYYCQQSNEAPPTFGQGTKLEIK
notes: also called 7A4.v15 L96A (CDR-H3) IgG; copies: 2 + 2
As to B2, the EC50 in assay [1] is 0.0287 µg/mL; in assay [2], 0.0155 µg/mL.

B3: G98A (antibody, V domains shown)
VH: EVQLVQSGAEVKKPGASVKVSCKGSGYTFTDYAMHWVRQAPGQGLEWMGGISTYFGRTNYNQKFKGRVTMTVDTSISTAYMELSRLRSDDTAVYYCARGLSANYVMDYWGQGTTVTVSS
VL: DIVMTQSPDSLAVSLGERATINCRASESVDSYGNSFMHWYQQKPGQPPKLLIYRASNLESGVPDRFSGSGSRTDFTLTISSLQAEDVAVYYCQQSNEAPPTFGQGTKLEIK
notes: also called 7A4.v15 G98A (CDR-H3) IgG; copies: 2 + 2
Consider B3, for which the EC50 in assay [1] turned out to be 0.0247 µg/mL; in assay [2], 0.0194 µg/mL.

B4: G95A (antibody, V domains shown)
VH: EVQLVQSGAEVKKPGASVKVSCKGSGYTFTDYAMHWVRQAPGQGLEWMGGISTYFGRTNYNQKFKGRVTMTVDTSISTAYMELSRLRSDDTAVYYCARALSGNYVMDYWGQGTTVTVSS
VL: DIVMTQSPDSLAVSLGERATINCRASESVDSYGNSFMHWYQQKPGQPPKLLIYRASNLESGVPDRFSGSGSRTDFTLTISSLQAEDVAVYYCQQSNEAPPTFGQGTKLEIK
notes: also called 7A4.v15 G95A (CDR-H3) IgG; copies: 2 + 2
For B4, the figures for the EC50 in assay [1] and in assay [2] were 0.0418 µg/mL and 0.0135 µg/mL, respectively.

B5: E93A (antibody, V domains shown)
VH: EVQLVQSGAEVKKPGASVKVSCKGSGYTFTDYAMHWVRQAPGQGLEWMGGISTYFGRTNYNQKFKGRVTMTVDTSISTAYMELSRLRSDDTAVYYCARGLSGNYVMDYWGQGTTVTVSS
VL: DIVMTQSPDSLAVSLGERATINCRASESVDSYGNSFMHWYQQKPGQPPKLLIYRASNLESGVPDRFSGSGSRTDFTLTISSLQAEDVAVYYCQQSNAAPPTFGQGTKLEIK
notes: also called 7A4.v15 E93A (CDR-L3) IgG
B5: the concentration giving a half-maximal response (EC50) is 0.0176 µg/mL in assay [1] and 0.0122 µg/mL in assay [2].

B6: M100bA (antibody, V domains shown)
VH: EVQLVQSGAEVKKPGASVKVSCKGSGYTFTDYAMHWVRQAPGQGLEWMGGISTYFGRTNYNQKFKGRVTMTVDTSISTAYMELSRLRSDDTAVYYCARGLSGNYVADYWGQGTTVTVSS
VL: DIVMTQSPDSLAVSLGERATINCRASESVDSYGNSFMHWYQQKPGQPPKLLIYRASNLESGVPDRFSGSGSRTDFTLTISSLQAEDVAVYYCQQSNEAPPTFGQGTKLEIK
notes: also called 7A4.v15 M100bA (CDR-H3) IgG; copies: 2 + 2
As to B6, the figures for the EC50 in assay [1] and in assay [2] were 0.0169 µg/mL and 0.0161 µg/mL, respectively.

B7: 5983 (antibody, V domains shown)
VH: QLQLQESGPGLVKPSETLSLTCTVSGGSISSSSYYWGWIRQPPGKGLEWIGNIYYSGSTYYNPSLRSRVTISVDTSKNQFFLKLSSVTAADTAVYYCARLGHGYNYFDLWGRGTLVTVSS
VL: EIVLTQSPATLSLSPGERATLSCRASQSVSSYLAWFQQKPGQAPRLLIYDASNRATGIPARFSGSGSGTDFTLTISSLEPEDFAVYYCQQVYVWPPRTFGGGTKVEIK
notes: anti-BACE1 IgG
Take B7: the Kd in the assay with murine BACE1 ECD was less than 0.24 nM; in the assay with human BACE1 ECD [3] it was 0.35 nM; in the assay with human BACE1 ECD [5] it was 0.34 nM. Besides, the “IC50, Abeta x-40 in mouse cortical neurons” value in assay [4] was 7.34 nM. The “maximal % inhibition of Abeta x-40” value in assay [4] amounted to 72%.

The EC50 is the midpoint of the concentration-response curve. As a reminder, the Kd is the free concentration of one partner at which half of the binding sites on the other are occupied at equilibrium, for simple one-to-one binding.

These data come from patent US20180057604A1 (Genentech, published 2018).
